Positions count from the first letter of the chain named. Where two headings read alike, the source gives them in different places. Values belong to the binder of their own block, whether it stands above or below them.
Experiments:
[1] = molecular target: T1, recombinant soluble rabbit TL1A (rabbit); experiment: SPR, IgG captured on anti-hIgG, TL1A injected
T1 construct: also called rabbit rsTL1A
T1 chain: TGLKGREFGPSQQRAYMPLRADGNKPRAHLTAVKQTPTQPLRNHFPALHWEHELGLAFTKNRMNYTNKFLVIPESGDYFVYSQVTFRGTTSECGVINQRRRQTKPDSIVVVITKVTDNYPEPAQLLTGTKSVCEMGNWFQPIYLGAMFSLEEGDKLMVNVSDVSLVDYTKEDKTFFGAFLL
Description: (§1) The antibodies were captured via directly immobilized anti-human IgG (GE Healthcare) onto a carboxymethylated dextran sensor chip surface (CM5) using a Biacore T100 or T200 instrument. Anti-human IgG was immobilized through amine coupling to densities of approximately 4,000-13,000 response units (RU). […] At the end of each cycle, the entire anti-hIgG surface was regenerated by a 30-second pulse of 3M MgCl₂ followed by two consecutive 15-second pulses of PBS-NET. […] All injections were performed at 25° C. at a collection rate of 10 Hz. All sensorgrams were double referenced by using both a control surface and buffer injections. Rate constants were determined by fitting the data to a 1:1 model in Biacore T100, T200 evaluation software v1.0, or BIAevaluation software v4.1.1 and the equation KD=Kd/kₐ.
(§2) At the highest cytokine concentrations, the dissociation phase was sometimes extended to 60 minutes to achieve at least a 5% decrease in binding signal.

[2] = molecular target: T2, recombinant soluble murine TL1A (mouse, UniProt Q5UBV8 75-252); experiment: KinExA, equilibrium in solution
T2 construct: also called murine rsTL1A; mouse TL1A
T2 chain: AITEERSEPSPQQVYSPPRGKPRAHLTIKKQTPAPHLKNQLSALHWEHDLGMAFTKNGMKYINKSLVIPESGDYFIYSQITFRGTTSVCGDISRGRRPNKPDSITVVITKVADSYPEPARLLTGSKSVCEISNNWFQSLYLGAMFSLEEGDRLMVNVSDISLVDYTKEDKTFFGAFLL
Protocol: (§3) This assay involves pre-incubating antibody: antigen mixtures in solution long enough to reach equilibrium before measuring the level of unbound antibody using a solid phase component. […] Beads were blocked for 1 hour with PBS plus 10 mg/ml bovine serum albumin (bovine serum albumin, Sigma) at room temperature before being diluted up to a total of 27 ml in PBS. […] For each titration series, a buffer sample and a sample of antibody alone were included. Each antibody: TL1A mixture was tumbled at room temperature for at least six hours to reach equilibrium and then each mixture was injected over the solid phase of TL1A-coated beads in the instrument flow cell. […] Beads were replenished between each sample. Binding signals of detected free antibody were converted to percentage of free, unbound antibody as measured by the antibody only sample and plotted versus each concentration of TL1A. For each antibody, the KD and ABC controlled curves were fit simultaneously using n-Curve Analysis software v3.1.4 to fit the curves to the ‘affinity, unknown ligand’ model and measure an equilibrium KD.
(§4) Solution-based kinetic exclusion assays (KinExA) were carried out as an orthogonal technique to measure equilibrium KD values.

[3] = molecular target: T3, recombinant soluble cynomolgus monkey TL1A (cynomolgus monkey, UniProt O95150 72-251 (human entry)); experiment: KinExA, equilibrium in solution
T3 construct: also called cyno rsTL1A; cyno TL1A
T3 chain: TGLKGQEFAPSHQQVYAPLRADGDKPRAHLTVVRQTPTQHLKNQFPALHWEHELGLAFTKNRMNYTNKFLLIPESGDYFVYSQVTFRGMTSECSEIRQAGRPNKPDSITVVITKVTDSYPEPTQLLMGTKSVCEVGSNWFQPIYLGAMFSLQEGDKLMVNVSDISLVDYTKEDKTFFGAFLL
Protocol: as §3, §4

[4] = molecular target: T4, recombinant soluble rat TL1A (rat, UniProt Q8K3Y7 76-252); experiment: SPR, IgG captured on anti-hIgG, TL1A injected
T4 construct: also called rat rsTL1A
T4 sequence: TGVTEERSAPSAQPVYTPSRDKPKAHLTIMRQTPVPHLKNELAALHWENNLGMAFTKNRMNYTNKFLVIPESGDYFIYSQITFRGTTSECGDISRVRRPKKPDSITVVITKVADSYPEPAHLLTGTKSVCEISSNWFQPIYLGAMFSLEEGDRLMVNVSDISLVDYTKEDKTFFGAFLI
Description: as §1, §2

[5] = molecular target: T3, recombinant soluble cynomolgus monkey …; experiment: SPR, IgG captured on anti-hIgG, TL1A injected;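 for t1/2: biacore surface plasmon resonance on a dextran sensor chip, double-referenced sensorgrams fitted to a one-to-one binding model, KD taken as dissociation over association rate constant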
[6] = molecular target: T2, recombinant soluble murine TL1A; experiment: SPR, IgG captured on anti-hIgG, TL1A injected;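 for koff: biacore measurement on a carboxymethylated dextran chip, double-referenced against a control surface and buffer, rates fitted to a one-to-one binding model, KD from koff over kon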;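 for kon: biacore measurement on a carboxymethylated dextran chip, double-referenced against a control surface and buffer, rates fitted to a one-to-one binding model, KD from koff over kon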
[7] = molecular target: T3, recombinant soluble cynomolgus monkey …; experiment: SPR, IgG captured on anti-hIgG, TL1A injected;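 for t1/2: biacore surface plasmon resonance on a dextran sensor chip, double-referenced sensorgrams fitted to a one-to-one binding model, KD taken as dissociation over association rate constant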
[8] = molecular target: T3, recombinant soluble cynomolgus monkey …; experiment: SPR, IgG captured on anti-hIgG, TL1A injected;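 for t1/2: biacore surface plasmon resonance on a dextran sensor chip, double-referenced sensorgrams fitted to a one-to-one binding model, KD taken as dissociation over association rate constant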
Description: To characterize the binding kinetics of the anti-TL1A antibodies to TL1A by surface plasmon resonance, each anti-TL1A antibody was captured via directly immobilized anti-human IgG (GE Healthcare) onto a carboxymethylated dextran sensor chip surface (CM5) using a Biacore T100 or T200 instrument. Anti-human IgG was immobilized through amine coupling to densities of approximately 4,000-13,000 response units (RU). […] At the end of each cycle, the entire anti-human IgG (hIgG) surface was regenerated by a 30-second pulse of 3M MgCl₂ followed by two consecutive 15-second pulses of PBS-NET. All injections were performed at 25° C. at a collection rate of 10 Hz. All sensorgrams were double referenced by using both a control surface and buffer injections. Rate constants were determined by fitting the data to a 1:1 model in Biacore T100, T200 evaluation software v1.0, or BIAevaluation software v4.1.1 and the equation KD=kd/kₐ.
The anti-TL1A antibodies were captured onto immobilized anti-human Fc on a CM5 sensor chip on a Biacore T100 instrument. […] Rate constants shown in the table were determined by fitting to a 1:1 Langmuir binding model in BiaEvaluation v4.1.1 (fit lines shown in red). Data shown are the average and standard deviation of at least 3 independent surfaces between 2 experiments.

[9] = molecular target: T5, endogenous TL1A of stimulated human peripheral blood (human, UniProt O95150 72-251, limits assumed); experiment: cell-based or functional assay
T5 sequence (looked up): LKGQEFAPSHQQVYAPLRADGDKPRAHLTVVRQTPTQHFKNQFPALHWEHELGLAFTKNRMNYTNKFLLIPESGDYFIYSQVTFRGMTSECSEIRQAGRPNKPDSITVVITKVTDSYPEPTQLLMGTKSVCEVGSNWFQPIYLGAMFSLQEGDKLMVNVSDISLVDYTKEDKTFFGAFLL

[10] = molecular target: T2, recombinant soluble murine TL1A; experiment: SPR, IgG captured on anti-hIgG, TL1A injected;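 for koff: biacore measurement on a carboxymethylated dextran chip, double-referenced against a control surface and buffer, rates fitted to a one-to-one binding model, KD from koff over kon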;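 for kon: biacore measurement on a carboxymethylated dextran chip, double-referenced against a control surface and buffer, rates fitted to a one-to-one binding model, KD from koff over kon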
Description: as §1, §2

[11] = molecular target: T6, recombinant soluble human TL1A (human, UniProt O95150 71-251); experiment: binding test of the 1D1 point mutants, method not named
T6 construct: Homotrimer, expressed in HEK293 and purified over HitrapNTA; no tag is described; Used biotinylated in the HTRF assay and in flow cytometry; also called rsTL1A; hTL1A
T6 sequence: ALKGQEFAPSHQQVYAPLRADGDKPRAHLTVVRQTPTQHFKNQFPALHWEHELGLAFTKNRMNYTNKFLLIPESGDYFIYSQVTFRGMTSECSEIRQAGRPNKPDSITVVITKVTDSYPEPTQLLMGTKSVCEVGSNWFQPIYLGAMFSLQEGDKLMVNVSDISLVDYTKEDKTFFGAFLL

[12] = molecular target: T6, recombinant soluble human TL1A; experiment: SPR, IgG captured on anti-hIgG, TL1A injected; off rate too slow to measure
[13] = molecular target: T6, recombinant soluble human TL1A; experiment: KinExA, equilibrium in solution
Protocol: as §3, §4

[14] = molecular target: T6, recombinant soluble human TL1A; experiment: cell-based or functional assay

Kd [1]: 1.31 nM
koff [1]: 0.00079 s⁻¹
kon [1]: 610000 M⁻¹ s⁻¹
t1/2 [1]: 14.6 min
Kd [2]: 0.383 nM
Kd [3]: 0.384 nM
Kd [4]: 8.14 nM
koff [4]: 0.0134 s⁻¹
kon [4]: 1.71e+06 M⁻¹ s⁻¹
t1/2 [4]: 0.867 min
Kd [5]: 6.69 nM
koff [5]: 0.0041 s⁻¹
kon [5]: 600000 M⁻¹ s⁻¹
t1/2 [5]: 2.82 min
Kd [6]: 1.32 nM
Kd [7]: 1.67 nM
Kd [8]: 7 nM
koff [8]: 0.0041 s⁻¹
kon [8]: 600000 M⁻¹ s⁻¹
HWB Assay, average IC50 [9]: 0.248 nM
Kd [10]: 7.29 nM
koff [10]: 0.0036 s⁻¹
kon [10]: 490000 M⁻¹ s⁻¹
t1/2 [10]: 3.25 min
B1: anti-TL1A antibody 1D1 (antibody, human IgG1, kappa, V domains shown)
VH: QVQLVQSGAEVKKPGASVKVSCKASGYSFTYYGISWVRQAPGQGLEWMGWISTYNGNTNYARMLQGRVTMTTDTSTRTAYMELRSLRSDDTAVYYCARENYYGSGSYRGGMDVWGQGTTVTVSS
VL: EIVLTQSPATLSLSPGERATLSCRASQSVSSYLAWYQQKPGQAPRLLIYDASNRATGIPARFSGSGSGTDFTLTISSLEPEDFAVYYCQQRSNWPWTFGQGTKVEIKR
notes: Human IgG1 with effector-null triple mutation (hIgG1-3m), kappa; The first binning was done with the antibodies from the hybridoma screen; also called 1D1 parental; Parental 1D1

Kd [11]: 0.42 nM
B2: 1D1 with heavy chain mutation S28D (antibody, V domains shown)
VH: B1 VH with S28D
VL: EIVLTQSPATLSLSPGERATLSCRASQSVSSYLAWYQQKPGQAPRLLIYDASNRATGIPARFSGSGSGTDFTLTISSLEPEDFAVYYCQQRSNWPWTFGQGTKVEIK
notes: Point mutant of 1D1 CDR-H1

Kd [12]: < 0.1 nM
Kd [1]: 0.478 nM
koff [1]: 0.00014 s⁻¹
kon [1]: 300000 M⁻¹ s⁻¹
t1/2 [1]: 82.1 min
Kd [13]: 0.00769 nM
Kd [4]: 10.9 nM
koff [4]: 0.0072 s⁻¹
kon [4]: 670000 M⁻¹ s⁻¹
t1/2 [4]: 1.6 min
Kd [5]: 0.22 nM
koff [5]: 8e-05 s⁻¹
kon [5]: 390000 M⁻¹ s⁻¹
t1/2 [5]: 141 min
HWB Assay, average IC50 [9]: 0.000968 nM
Caspase Assay, average IC50 [14]: 0.0702 nM
NFkB Assay, average IC50 [14]: 0.14 nM
Kd [10]: 1.64 nM
koff [10]: 0.00043 s⁻¹
kon [10]: 270000 M⁻¹ s⁻¹
t1/2 [10]: 26.9 min
B3: 1D1 1.27 (antibody, human IgG1, kappa, V domains shown)
VH: B1 VH with S28D, N59H
VL: B1 VL
notes: Expressed as IgG1

Kd [11]: 6.8 nM
B4: 1D1 with heavy chain mutation S28Q (antibody, V domains shown)
VH: B1 VH with S28Q
VL: B2 VL
notes: Point mutant of 1D1 CDR-H1

Kd [11]: 12.7 nM
B5: 1D1 with heavy chain mutation Y31H (antibody, V domains shown)
VH: B1 VH with Y31H
VL: B2 VL
notes: Point mutant of 1D1 CDR-H1
